Results as given in US8216580B2, “Sulfatases and methods of use thereof” (The Regents of the University of California, priority 2000, dated 2012).

Tests used:
[1] = Arylsulfatase activity assay with 4-MUS substrate; assay type: biochemical
Protocol: The 100-fold concentrated conditioned medium (CM) derived from each transfection of CHO cells as described above was dialyzed into 50 mM HEPES, pH 8.0. The His-tagged fusion proteins were bound to a Ni-NTA resin (QIAGEN) by rotation at 4° C. over night, then washed with 50 mM HEPES (pH 8.0), 3 times. 250 mM imidazole in 50 mM HEPES, pH 8.0 was used to elute the His-tagged fusion proteins from Ni-NTA. The resins with boud material or the eluates were mixed with 10 mM 4-methylumbelliferyl-sulfate (4-MUS; a substrate for sulfatases), and 10 mM lead acetate, in a total volume of 100 μl. The reaction mixtures were incubated at 37° C. for various periods of time. Reactions were terminated by the addition of 100 μl of 0.5 M Na2CO3/NaHCO3, pH 10.7 to 20 μl of the reaction mixture. The fluorescence of 4-methylumbelliferone was measured on a Multi-Well Plate Reader CytoFluorII (PerSeptive Biosystems). The fluorescence was determined at an excitation wavelength of 360 nm and emission wavelength of 460 nm. A substrate dose response curve was performed over the concentration range of 1 to 10 mM 4-MUS.
The synthetic fluorogenic compound 4-methylumbelliferyl sulfate (4-MUS) serves as a substrate for most sulfatases, both in the lysosomal and non-lysosomal classes. CHO cells were transfected with a cDNA for HSulf-1 or HSulf-2 or a vector control. Conditioned medium was collected and incubated with nickel resin (Ni-NTA) to bind the His-tagged recombinant proteins. The bead-bound material was assayed for activity on 4-MUS. For both enzymes, hydrolysis depended on time of reaction (FIG. 15A), concentration of substrate (FIG. 15B), and amount of CM (FIG. 15C). From the substrate dose-response curves of FIG. 15B and based on estimates of Sulf protein levels in CM, we approximated Vmax for the two Sulfs to be in the range of 1000-2000 nmol per min per mg of Sulf protein. Human glucosamine-6-sulfatase has a considerably lower Vmax against 4-MUS ([…]) whereas the Vmax of human N-acetylgalactosamine-4-sulfatase (arylsulfatase B) is much higher (48000).
HSulf-1, HSulf-2 or their mutated forms (HSulf-1 ΔCC and HSulf-2 ΔCC) was purified from the conditioned medium of transfected CHO cells by binding to Ni-NTA beads. A) The bead-bound material was tested for arylsulfatase activity as a function of time against 10 mM 4-MUS substrate at pH 8. The “no-enzyme” control was based on testing conditioned medium from vector-control transfected CHO cells. No activity was detected in the absence of added substrate (not shown). […] The activity of each Sulf was determined relative to that of beads exposed to an equivalent volume of vector-control conditioned medium. The activity of HG6S was determined (24 hr incubation) relative to that of the buffer. […]

[2] = tested on: chick chorioallantoic membrane (CAM); assay: Chick chorioallantoic membrane (CAM) angiogenesis assay; assay type: in vivo; details: 5×10^6 stably transfected CHO cells on CAM of 9 day embryos, 72 hrs; compared to CHO-Sulf-1 or empty vector clone
Protocol: Sulf-2 functions as a heparan sulfate degrading enzyme (HSDE) during tumor angiogenesis by mobilizing angiogenic factors from sequestration with HSPGs We employed the chick chorioallantoic membrane (CAM) assay, a standard angiogenesis assay. CHO cells were stably transfected with HSulf-1, HSulf-2, or the empty vector and clones were isolated. Single clones of each type were implanted on the surface of the CAM of 9 day embryos. After 72 hrs, the number of new blood vessel branches was determined under a dissecting scope.
FIG. 17. Pro-angiogenic activity of HSulf-2. 5×10^6 CHO cells were implanted on the CAM of 9-day chick embryos. The CHO cells were clones that were stably transfected with either the empty vector (clone V1), HSulf-1 (clone 9) or HSulf-2 (clone 18). After 72 hrs of further incubation, the number of blood vessel branches was counted under a dissecting microscope. 6 eggs were treated with each type of CHO cell. Means and standard errors of the means are indicated.

[3] = tested on: Wnt signaling; assay: TCF-luciferase (TOPFlash/FOPFlash) Wnt reporter assay in HEK 293 cells co-cultured with Wnt-expressing 3T3 fibroblasts; assay type: cell-based, human; details: stably transfected HEK 293 cells co-cultured with Wnt1 or Wnt4 expressing 3T3 fibroblasts
Protocol: Cells were plated in 24 well plates and transfected with either 0.3 μg TOPFlash or FOPFlash and 0.01 μg Renilla control plasmid (Promega) using Fugene (Roche) according to the manufacturer's procedure. After 48 hours cells were lysed and analyzed utilizing the Dual Luciferase Reporter Assay system (Promega). Luciferase activity was normalized to control Renilla activity.
To assay HSulf influence on Wnt signaling in HEK 293 cells, HEK 293 cells were transfected with TOP/FOPFlash and Renilla control plasmid. 24 hours later the medium was changed, and Wnt1-transfected 3T3 […] fibroblasts were added. 24 hours later, Luciferase activity was measured, as described above.
Dhoot et al. (2001) supra; Ai et al. (2003) J Cell Biol 162:341-351. In order to determine if the human Sulfs affect Wnt signaling, the effect of HSulf-1 and -2, when overexpressed in a heterologous expression system on Wnt signaling, was analyzed. For this purpose, HEK 293 cells stably transfected with either HSulf-1 (HS1) or HSulf-2 (HS2) were co-cultured with Wnt1 or Wnt4 expressing 3T3 fibroblasts. Wnt activity was measured by utilizing a quantitative TCF-luciferase reporter gene (FOPFlash/TOPFlash system). van de Wetering et al. (1997) Cell 88:789-799.

Substance | arylsulfatase activity of cysteine-to-alanine mutants ([1]; 4-MUS, pH 8, 2 hr, mutant protein levels in CM equivalent to wild-type) | sulfatase activity ([1]; His-tagged fusion proteins from CHO conditioned medium, 10 mM 4-MUS, 37° C.) | number of new blood vessel branches [2] | increase of Wnt activity [3]
HSulf-2 ΔCC: catalytically inactive HSulf-2, cysteines 88 and 89 mutated to alanines (CC88, 89AA) | Lack of the activity | – | – | –
HSulf-2: Human SULF2, an 870 amino acid sulfatase protein, SEQ ID NO:06; expressed with C-terminal Myc-His tag | – | Time-dependent sulfatase activity was detected | dramatic response | two-fold
